Biological target: Cupid B-PTEN peptide

B1: PTEN protein of Dictyostelium (protein)
chain: MSNLLRVAVSKQKRRYQKNGYDLDLAYITDNIVAMGFPSEKVEGVFRNPMKDVQRFLDQYHKDHFKVYNLCSERVYDHSKFYGRVGYYPFDDHNAPQFEMIDAFCRDVDAWMKEDSKNIAVIHCKAGKGRTGLMICCWLMYCGMWKNTEDSLRFYAALRTYNQKGVTIPSQIRYVGYFGRSIRESIKYVPRNVTLKKIVLRPLPKEINLSEVQFNISVGKNCVFNSKEHNMNVVISKKKKTVVDKNKKDPKKKLTKENSEKNIDSQQQQQSQSSLSQSQQGQSSPNMQSLSASGTISSGSNVGTVNGNTLHQLGGSQFSLSDLADGNTIGNDEYISFEIGALSLAGDIRIEFTNKQDDRMFMFWVNTSFVQQLEIIPKSGLDKAHKDKNHKAFPEDFHVELTFDQLDQQQSHTTVVASAEEQTNNQHYPQSSNNVATSSSHHDNITVVASDAPQNNNNNNNLNSSNSNNATTTTTKNNISLASSQSNPVQQESNPSTTTQVSEENSAPKVEAEKIENSNASANDSETSSNSSS
- phosphorylation response of proteins to cyclic AMP (antibody detection on SDS gels): they exhibited a much stronger initial phosphorylation response to cyclic AMP
